Data reported in patent US20240209086A1 (PETMEDIX, published 2024).

T1: canine CD20 on cells (HEK293, MDCK II, CLBL-1 or native B cells) (canine, UniProt Q3C2E2 1-297)
T1 construct: also called dCD20; cCD20
T1 chain: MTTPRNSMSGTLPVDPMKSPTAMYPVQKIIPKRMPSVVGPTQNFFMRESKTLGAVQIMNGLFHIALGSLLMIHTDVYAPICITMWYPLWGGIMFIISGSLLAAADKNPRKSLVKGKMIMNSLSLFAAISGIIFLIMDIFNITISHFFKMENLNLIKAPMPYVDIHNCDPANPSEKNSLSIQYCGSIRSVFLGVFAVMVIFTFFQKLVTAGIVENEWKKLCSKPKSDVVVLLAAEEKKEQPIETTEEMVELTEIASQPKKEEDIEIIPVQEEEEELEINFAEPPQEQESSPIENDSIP


Tests used:
[1] = target: canine CD3 on canine T cells (canine PBMC) (canine, UniProt P27597 22-202); assay: cell-based or functional assay
Sequence of canine CD3 on canine T cells (canine PBMC) (P27597 22-202 limits assumed, chain 1 of 3): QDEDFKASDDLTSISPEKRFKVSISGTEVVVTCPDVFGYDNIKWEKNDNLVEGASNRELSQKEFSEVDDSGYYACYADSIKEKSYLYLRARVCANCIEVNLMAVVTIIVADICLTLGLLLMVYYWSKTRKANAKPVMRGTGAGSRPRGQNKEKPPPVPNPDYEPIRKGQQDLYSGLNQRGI
Sequence of canine CD3 on canine T cells (canine PBMC) (chain, as listed by the source limits assumed, chain 2 of 3): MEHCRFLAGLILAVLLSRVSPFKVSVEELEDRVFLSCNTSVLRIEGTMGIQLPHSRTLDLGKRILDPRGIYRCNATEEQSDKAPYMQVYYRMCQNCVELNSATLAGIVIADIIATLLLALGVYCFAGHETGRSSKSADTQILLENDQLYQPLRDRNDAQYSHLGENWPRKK
Sequence of canine CD3 on canine T cells (canine PBMC) (chain, as listed by the source limits assumed, chain 3 of 3): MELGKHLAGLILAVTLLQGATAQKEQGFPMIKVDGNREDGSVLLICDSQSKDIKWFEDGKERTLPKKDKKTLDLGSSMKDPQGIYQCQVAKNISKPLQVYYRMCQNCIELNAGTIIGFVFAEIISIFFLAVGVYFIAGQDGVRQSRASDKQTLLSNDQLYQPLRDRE

[2] = target: T1, canine CD20 on cells (HEK293, MDCK II, …); assay: flow cytometry, canine CD20 HEK293 cells, 10 µg/ml, FITC anti-canine IgG
Method: A CD20 binding screen was performed on candidate proteins produced from the canine CD20 immunisation as described in Examples 2 and 3. CHO cells supernatants containing candidate antibodies were diluted to 10 μg/ml in FACS buffer (PBS containing 3% FBS) and screened for their ability to bind canine CD20 expressed on cell surface. In brief, 1-2×10⁵ canine CD20-expressing HEK cells were incubated with candidate mAbs for one hour at 4° C., at a fixed concentration of 10 μg/ml followed by incubation with 5 μg/ml of FITC-conjugated anti-canine IgG secondary antibody (Bethyl Laboratories) for 1 hour at 4° C. Cells incubated with anti-canine IgG FITC secondary antibody and without primary anti-canine CD20 antibody, or with isotype control primary antibody, were used as negative controls. The data were acquired on either a Beckman Coulter CytoFLEX or a BD Accuri C6 Plus flow cytometer and analysed using FlowJo software.

Binder | CD25 Activation, Day 6, IS [1] | CD25 Activation, Day 6, PB [1] | CD25 Activation, Day 9, IS [1] | CD25 Activation, Day 9, PB [1] | IFNy Concentration pg/ml, Day 6, IS [1] | IFNy Concentration pg/ml, Day 9, IS [1] | IFNy Concentration pg/ml, Day 9, PB [1] | Ki67 Proliferation, Day 6, IS [1] | Ki67 Proliferation, Day 6, PB [1] | Ki67 Proliferation, Day 9, IS [1] | Ki67 Proliferation, Day 9, PB [1] | binding result [2]
PMX200 (monospecific anti-canine CD3, canine IgG-B effector function deficient Fc) (antibody, V domains shown) VH: ELTLQESGPGLVKPSQTLSLTCIVSGGSVTSSYYWNWIRQSPGRGLEWMGYWTGNTNYNPALQGRIFITADTAKNQFSLQLRSMTTEDTAVYYCARGGYGYHYGMDYWGHGTSVFVSS VL: SYVLTQLPSKSVALKQPAHITCGGDNIGSKRVHWYQQKLGQAPALIISFDNSRPTGIPERFSGANSGNTATLTISGALAEDEADYYCQVWDSTAKASIFGGGTHLTVL | 8.83 | 19.5 | 13.1 | 15 | 59.6 pg/mL | 363 pg/mL | 822 pg/mL | 0.76 | 2.92 | 1.29 | 0.78 | 
PMX191 (monospecific anti-canine CD3, canine IgG-B effector function deficient Fc) (antibody, V domains shown) VH: EVQLVESGGDLVKPAGSLRLSCVASGFTFSDYSMSWVRQGPEKGLQLVAGMNSDGSTTYYTDAVRGRFTISRDNAKNTMYLQMNSLRDEDTAIYYCAKGAAAPDYWGQGTLVTVSS VL: SYELTQPPSVNVTLRETAHITCGGDRIGSKYVQWIQQIPGQAPVVIIYKDNNRPTGIPERFSGANSGNTATLTISGALAEDEADYYCQVGDNYTWVFGEGTQLTVL | 8.97 | 10.5 | 14.2 | 14.9 | 31.9 pg/mL | 370 pg/mL | 744 pg/mL | 0.66 | 0.35 | 2.89 | 0.6 | 
PMX192 (monospecific anti-canine CD3, canine IgG-B effector function deficient Fc) (antibody, V domains shown) VH: EVQLVESGGDLVKPAGSLRLSCVASGFTFSDYSMSWVRQAPEKGLQLVAGINGDGSTTYYTDAVKGRFTISRDNAKNTVYLQMNSLRAEDTAMYYCAKGAGTGDFWGQGTLVTVSS VL: SYELTQPPSVNVTLRETAHITCGGASIGRKYVQWIQQIPGQAPVVIIYKDSNRPTGIPERFSGANSGNTATLTISGALAEDEADYYCQVGDSGAWVFGEGTQLTVL | 10.4 | 12.7 | 10.3 | 11.3 | 75.9 pg/mL | 210 pg/mL | 758 pg/mL | 1.29 | 0.66 | 3.65 | 1.56 | 
PMX228 (monospecific anti-canine CD20, canine IgG-B, lambda C5) (antibody, V domains shown) VH: EVQLVQSGGDLVKPGGSLRLSCVASGYTFTRYHMSWVRQAPGKGLQWVAFINSDGTGITYGDAVKGRFTISRDNAKNTLYLQMNSLRAEDTAIYYCTTFDSWGQGTLVTVSS VL: SYVLTQLPSKNVTLKQPAHITCGGDNIGSKSVHWYQQKLGQAPILIIYYDSRRPTGIPERFSGANSGNTATLTISGALAEDEADYYCQVWDSSGNVFGGGTHLTVLG |  |  |  |  |  |  |  |  |  |  |  | binds
PMX185 (monospecific anti-canine CD3, canine IgG-B effector function deficient Fc) (antibody) heavy: EVQLVESGGDLVKPGGSLRLSCVASGFTFSSYHMSWVRQAPGKGLQWVASINSGGSRTSYVDAVKGRFTISRDNAKKTLYLQMNSLRAEDTAVYYCASGRTGPKLGLGDYGMDSWGHGTSLFVSSASTTAPSVFPLAPSCGSTSGSTVALACLVSGYFPEPVTVSWNSGSLTSGVHTFPSVLQSSGLYSLSSMVTVPSSRWPSETFTCNVAHPASKTKVDKPVPKRENGRVPRPPDCPKCPAPESLGGPSVFIFPPKPKDTLLIARTPEVTCVVVDLGREDPEVQISWFVDGKQMQTAKTQPREEQFNGTYRVVSVLPIGHQDWLKGKQFTCKVNHIGLPSPIERTISKARGQAHQPSVYVLPPSREELSKNTVSLTCLIKDFFPPDIDVEWQSNGQQEPESKYRTTPPQLDEDGSYFLYSKLSVDKSRWQRGDTFICAVMHEALHNHYTQKSLSHSPGK VL: SYVLTQLPSKNVTLKQPAHITCGGDNIGSKSVHWYQQKLGQAPVMIIYYDSSRPTGIPERFSGANSGNTATLTISGALAEDEADYYCQVWDSSAKAWVFGEGTQLTVL | 14.7 | 11.9 | 10.3 | 13.9 | 86.7 pg/mL | 217 pg/mL | 166 pg/mL | 0.93 | 0.85 | 2.65 | 0.39 | 
PMX186 (monospecific anti-canine CD3, canine IgG-B effector function deficient Fc) (antibody) heavy: EVKLVESGGDLVKPGGSLRLSCVASGVTFSRYYMSWVRQAPGKGLQWVAYINSGGSTTSYADAVKGRFTISRDNAKNTLYLQMNSLRAEDTAVYYCASEGVGEIYGYKDFGMDYWGHGTSLFVSSASTTAPSVFPLAPSCGSTSGSTVALACLVSGYFPEPVTVSWNSGSLTSGVHTFPSVLQSSGLYSLSSMVTVPSSRWPSETFTCNVAHPASKTKVDKPVPKRENGRVPRPPDCPKCPAPESLGGPSVFIFPPKPKDTLLIARTPEVTCVVVDLGREDPEVQISWFVDGKQMQTAKTQPREEQFNGTYRVVSVLPIGHQDWLKGKQFTCKVNHIGLPSPIERTISKARGQAHQPSVYVLPPSREELSKNTVSLTCLIKDFFPPDIDVEWQSNGQQEPESKYRTTPPQLDEDGSYFLYSKLSVDKSRWQRGDTFICAVMHEALHNHYTQKSLSHSPGK VL: SYVLTQLPSKNVTLKQPAHITCGGDNIGSKSVHWYQQKLGQAPVLIIYYDSRRPTGIPERFSGANSGNTATLTISGALAEDEADYYCQVWDSSAKAWVFGEGTQLTVL | 10.5 | 20 | 10.9 | 17.6 | 27.7 pg/mL | 217 pg/mL | 1220 pg/mL | 2.63 | 0.2 | 1.09 | 0.74 | 
PMX190 (monospecific anti-canine CD3, canine IgG-B effector function deficient Fc) (antibody) heavy: EVQLVESGGDLVKPGGSLRLSCVASGFTFSSYQMSWVRQAPGKGLQWVAYISSGGGRTTYADAVRGRLTISRDNAKNTLYLQMNSLRAEDAAVYYCAREGGGEIYGYKDYGMDYWGHGTSLFVSSASTTAPSVFPLAPSCGSTSGSTVALACLVSGYFPEPVTVSWNSGSLTSGVHTFPSVLQSSGLYSLSSMVTVPSSRWPSETFTCNVAHPASKTKVDKPVPKRENGRVPRPPDCPKCPAPESLGGPSVFIFPPKPKDTLLIARTPEVTCVVVDLGREDPEVQISWFVDGKQMQTAKTQPREEQFNGTYRVVSVLPIGHQDWLKGKQFTCKVNHIGLPSPIERTISKARGQAHQPSVYVLPPSREELSKNTVSLTCLIKDFFPPDIDVEWQSNGQQEPESKYRTTPPQLDEDGSYFLYSKLSVDKSRWQRGDTFICAVMHEALHNHYTQKSLSHSPGK VL: SYVLTQLPSKNVTLKQPAHITCGGDNIGSKSVHWYQQKLGQAPVLIIYYDSSRPTGIPERFSGANSGNTATLTISGALAEDEADYYCQVWDSSAKAWVFGEGTQLTVL | 11.3 | 14.8 | 13.5 | 11.8 | 54.4 pg/mL | 384 pg/mL | 699 pg/mL | 0.73 | 0.98 | 0.9 | 2.73 | 

More lines, now with the values ahead:

CD25 Activation, Day 6, IS [1] | CD25 Activation, Day 6, PB [1] | CD25 Activation, Day 9, IS [1] | CD25 Activation, Day 9, PB [1] | IFNy Concentration pg/ml, Day 6, IS [1] | IFNy Concentration pg/ml, Day 9, IS [1] | IFNy Concentration pg/ml, Day 9, PB [1] | Ki67 Proliferation, Day 6, IS [1] | Ki67 Proliferation, Day 6, PB [1] | Ki67 Proliferation, Day 9, IS [1] | Ki67 Proliferation, Day 9, PB [1] | binding result [2] | Binder
 |  |  |  |  |  |  |  |  |  |  | binds | PMX227 (monospecific anti-canine CD20, canine IgG-B, lambda C5) (antibody, V domains shown) VH: EMQLVESGGALVKPGGSLRLSCVASGFTFRRYHMSWVRQAPGQGLQWVAYIDSDGSPTSYGDSVKGRFTISRDNAKNTLFLQMNSLRVDDTAVYYCTTLDYWGRGTLVTVSS VL: SYVLTQVPSKNVTLKQPAHITCGGDNIGGKSVHWYQQKLGQAPLLIIYYDTRRPTGIPERFSGANSGNTATLTISRALAEDEADYYCQVWDSSGNVFGGGTHLTVIG
 |  |  |  |  |  |  |  |  |  |  | binds | PMX230 (monospecific anti-canine CD20, canine IgG-B, lambda C5) (antibody, V domains shown) VH: EVHLVESGGDLVKPGGSLRLSCVASGITFNRYYMNWVRQTPGKGLQWVAYIDSGGSPTTYADAVKGRFTISRDNAKNTLYLQMNSLRAEDTAVYYCTSFDYWGQGTLVTVSS VL: SYVLTQLPSKNVTLKQPAHITCGGDNIGSKSVHWYQQKLGQAPILIIYYDTSRPTGIPERFSGANSGNTATLTISGALAEDEADYYCQVWDSSANVFGGGTHLTVLG
 |  |  |  |  |  |  |  |  |  |  | binds | PMX229 (monospecific anti-canine CD20, canine IgG-B, lambda C5) (antibody, V domains shown) VH: EVQLVESGGDLVKPGGSLRLSCVASGITFSRYHMSWVRQAPGKGLQWVAFINTGRSSTNYADAVAGRFTISRDNAKNTLYLQMNGLTVEDTAVYYCSTLDYWGQGTLVTVSS VL: SYVLTQLPSKSVTLKQPAHITCGGDNIGSKSVHWYQQKLGQAPILIIYYDNNRPTGIPERFSGANSGNTATLTISGALAEDEADYYCHVWDSSVNVFGGGTHLTVLG
 |  |  |  |  |  |  |  |  |  |  | binds | PMX265 (monospecific anti-canine CD20, canine IgG-B, lambda C5) (antibody, V domains shown) VH: EVQLVQSGGDLVKPGGSLRLSCVASGYTFSRYHMSWVRQAPGKGLQWVAFINSDGTGITYGDAVKGRFTISRDNAKNTLYLQMNSLRAEDTAIYYCTTFDSWGQGTLVTVSS VL: SYVLTQLPSKNVTLKQPAHITCGGDNIGSKSVHWYQQKLGQAPILIIYYDSRRPTGIPERFSGANSGNTATLTISGALAEDEADYYCQVWDSSGNVFGGGTHLTVLG
